Measurements taken from patent US8465945B2, “Method for production and use of mite group 1 proteins” (Merck Patent GmbH, priority 1999, dated 2013).

System: IgE from mite-allergic dog sera
Test: ELISA, binding of IgE from dog sera to coated Der f 1 proteins or mite extracts, detected with FcεR1α-biotin

B1: PDerf1303b: Recombinant Der f 1 expressed by P. pastoris HCY215 from nDerf1909b (pro-form, SEQ ID NO:29); actually secreted as mature form (protein, listed as Dermatophagoides farinae)
chain: RPASIKTFEEFKKAFNKNYATVEEEEVARKNFLESLKYVEANKGAINHLSDLSLDEFKNRYLMSAEAFEQLKTQFDLNAETSACRINSVNVPSELDLRSLRTVTPIRMQGGCGSCWAFSGVAATESAYLAYRNTSLDLSEQELVDCASQHGCHGDTIPRGIEYIQQNGVVEERSYPYVAREQRCRRPNSQHYGISNYCQIYPPDVKQIREALTQTHTAIAVIIGIKDLRAFQHYDGRTIIQHDNGYQPNYHAVNIVGYGSTQGDDYWIVRNSWDTTWGDSGYGYFQAGNNLMMIEQYPYVVIM
Assay Number 1, serum dog pool
  OD, bound IgE: 364 OD multiplied by 1000
Assay Number 1, serum dog-1
  OD, bound IgE: 21 OD multiplied by 1000
Assay Number 1, serum dog-2
  OD, bound IgE: 1490 OD multiplied by 1000
Assay Number 1, serum dog-3
  OD, bound IgE: 2499 OD multiplied by 1000
Assay Number 2, dog sera pool A 146
  OD, bound IgE: 199 OD multiplied by 1000
Assay Number 2, dog sera pool KS338
  OD, bound IgE: 27 OD multiplied by 1000
Table 1, 3 dog serum samples
  reactivity: share of dog serum samples reactive to native Der f 1 proteins that are also reactive to the recombinant protein: 100%
